30 sequences from the nanobody polyreactivity screen of Harvey et al. (2022) can be followed below.

The nature of the data set: yeast display, Sf9 membrane polyspecificity reagent, FACS + sequencing; frameworks hold sequencing errors. The method in brief:
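In a synthetic yeast display library (Saccharomyces cerevisiae BJ5465), nanobody expression was induced with galactose for 36–48 hours. FACS gates were set low and high (top ~1%) using anti-HA fluorescence for expression and streptavidin fluorescence for binding of the Sf9 membrane reagent. Each polyreactivity label is drawn from the gate of origin.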
In the case of “QVQLVESGGGLVQAGGSHRFSCAASGFTVWEYAMGLYRQAPGKERELVAAISRGTSTYYADSVKGRFTISRDNAKNTVYLQMNSLKPEDTAVYYCAAAPSYYPARHGYWGQGSQVTVSS”, the “polyreactivity (PSR sort gate)” value is “low polyreactivity”.

Regarding “QVQLVESGGGLVQAGGSHRLICAASGSTFNFNVMGWYRQEPGKERELDAAISSSGGNTYYADSVKGRFTISRDNAKNTVYLQMNSLKPEDTAVYYCADEYEEWYSVFLYDYWGQGTQVTVSS”, the “polyreactivity (PSR sort gate)” value is recorded as “high polyreactivity”.

As to “QVQLVESGGGLVQAGGSHRLRCAASGRIFWSNTMGWYRQAPGKERELVAAISGRGGSTYYADSVKGRFTISRDNAKNTVYLQMNSLKPEDTAVYYCAARYPAYYEAYDYWGQGTQVTVSS”, the “polyreactivity (PSR sort gate)” value is given as “low polyreactivity”.

Turning to “QVQLVESGGGLVQAGGSHRLRCAAYGFIFIYAMGRYRQAPGKQRELVASIESGVSTDYADSVKGRFTISRDNAKNSVYFQMNSLKQEDTAVYYCAADQWSSLNYDYWGQGSQVTVSS”, the “polyreactivity (PSR sort gate)” value is listed as “low polyreactivity”.

Turning to “QVQLVESGGGLVQAGGSHRLSCAASGFIFRWYAMGWYRQAPGKERELVAAISRSGDSTYYADSVKGRFTISRDNAKNTVYLQMNSLKPDDTAVYYCAADDRYYTYGYDYWGQGTQVTVSS”, the “polyreactivity (PSR sort gate)” value is given as “low polyreactivity”.

Turning to “QVQLVESGGGLVQAGGSHRLSCAASGFTFGRYPMGWYRQAPGKERELVAAISSSGSSTYYSDSVKGRFTISRDNAKNTVYLQMNSLKQEDTAVYYCAAAIYVSDRHTYNYWGQGSQVTVSS”, the “polyreactivity (PSR sort gate)” value is recorded as “high polyreactivity”.

In the case of “QVQLVESGGGLVQAGGSHRLSCAASGFTFTHYPMGWYRQAPGKERELVAAISTSGGSTYYADSVKGRFTISRDNAKNSVYLQMNSLKPEDTAVYYCAARRDGWVQWGYYYWGQGTQVTVSS”, the “polyreactivity (PSR sort gate)” value is “low polyreactivity”.

With “QVQLVESGGGLVQAGGSHRLSCAASGIIFRGYPMGWYRPAPGIERELVASITRRRGSTRYADSVKGRFTISRDNAKNTVYLQMNSLKPEDTAVYYCAAVGVGKTSTAYGYWGQGTQVTVSS”, the “polyreactivity (PSR sort gate)” value is “high polyreactivity”.

With “QVQLVESGGGLVQAGGSHRLSCAASGLTFRRNAMGWYRQAPGKERELVAAISGSGGSTYYADSVKGRFTISRDNAKNTVYLQMNSLKPEDTAVYYCAADDGIVAYGYWGQGTQVTVSS”, the “polyreactivity (PSR sort gate)” value was “high polyreactivity”.

On to “QVQLVESGGGLVQAGGSHRLSCAASGLTLQRYTLGSYRQAPGKQSELVAAISRSGGGTYYADSVKGRFTISRDNAKNTVYLQMNSVKPEDTAVYYCAARGYTSYKHFGYWGQGTQVTVSS”, for which the “polyreactivity (PSR sort gate)” value is listed as “high polyreactivity”.

Turning to “QVQLVESGGGLVQAGGSHRLSCAASGRIFAHNAMGWYSQAPGKERELVAAITWSGGSTYYADSVKGRFTISRDNAKNTVYLQMNSLKPEDTAVYYCNTDSHGHLYNYWGQGTQVTVSS”, the “polyreactivity (PSR sort gate)” value is listed as “low polyreactivity”.

Consider “QVQLVESGGGLVQAGGSHRLSCAASGRIFALNAMGWYRQAPGKERELVDAIDTSSGDTYYADSVKGRFTISRDNAKNTVNLQMNCLKPEDTAVYYCAAEGLSPYAYVFSNYDYWGQGTQVTVSS”, for which the “polyreactivity (PSR sort gate)” value was “low polyreactivity”.

For “QVQLVESGGGLVQAGGSHRLSCAASGRIFGTYTMGWYRHAPGKERELVASIRFGGSTYYADSVKGRYTISRDNAKNTVYLQMNSLKPEDTAVYYCNRVYGYNRRYGYWGQGTQVTVSS”, the “polyreactivity (PSR sort gate)” value is “high polyreactivity”.

“QVQLVESGGGLVQAGGSHRLSCAASGRIFSDYAMGWYRQAPGKERELVAAITRDGSTNYADSVKGLFTISRDNAKNTVYLQLNSLKPEDTAVYYCAAEGRRGGKDYDYWGQGTQVTVSS”: the “polyreactivity (PSR sort gate)” value is recorded as “high polyreactivity”.

Turning to “QVQLVESGGGLVQAGGSHRLSCAASGRIFSPYAMGWYRRAPGKERELVAAISYDDGITYYADSVKGRFTISRDNAKNTVYLQMNSLKPEDTAVYYCAADCVTRPAGDYWGQGTQVTVSS”, the “polyreactivity (PSR sort gate)” value is recorded as “low polyreactivity”.

On to “QVQLVESGGGLVQAGGSHRLSCAASGRIIWWYAMGWYRQAPGKEREFVASISSTGSTSYADSVKGRFTISRDNAKITVYFQMNILKPEDTAVYYCAKEGIRHQDYNLSNDYWGQGTHVTVSS”, for which the “polyreactivity (PSR sort gate)” value is on record as “low polyreactivity”.

In the case of “QVQLVESGGGLVQAGGSHRLSCAASGRTFGYYAMGWYRQAPGKEREFVAAISWSGGSTYYADTVKGRFTISRDNAKNTVYLEMNSLKPEYTAVYYCATDTTYYAGSWYGYWGQGTQVTVSS”, the “polyreactivity (PSR sort gate)” value is on record as “low polyreactivity”.

Consider “QVQLVESGGGLVQAGGSHRLSCAASGSIFLFNAMGWYRQAPGKERELVAAITSPTARTYYADSVKGRFTISRDIAKNTVYLQMNSLKPEDTAVYYCAARYRYAYGYGRGYSWGQGTQVTVSS”, for which the “polyreactivity (PSR sort gate)” value is listed as “high polyreactivity”.

Take “QVQLVESGGGLVQAGGSHRLSCAASGSIFNLYTMGWYIQAPGKERELVAAIRWSGGRTYYADSVKGRFTISRDNAKNTVYLQMNSLKAEDTAVYYCAVRRVVARYDHWGQGTQVTVSS”: the “polyreactivity (PSR sort gate)” value was “low polyreactivity”.

“QVQLVESGGGLVQAGGSHRLSCAASGSIFPSYAKGWYRQAPGKERELVATIGRGGTTNYADSVKGRFTISRDNAKNTVYLQMNSLKPEDTAVYYCNAERIWRYKYGYDYWGQGTQVTVSS”: the “polyreactivity (PSR sort gate)” value is on record as “high polyreactivity”.

Consider “QVQLVESGGGLVQAGGSHRLSCAASGSIFTAYALGWYRQATGKARELVAAIDVSGDSTYYADSVKGRFTISRDNAKKTVYLQMNSLKPEDTAVYYCKAEYRVNKEYDYWGQGTQVTVSS”, for which the “polyreactivity (PSR sort gate)” value is recorded as “low polyreactivity”.

As to “QVQLVESGGGLVQAGGSHRLSCAASGSIFYAYAMGWYRQAPGKERELVAAITGSGGRTYYADSVKGRFTISRDNAKNTVYLQMNSLKPEDTAVYYCNAYYYRGSSYGYWGQGTQVTVSS”, the “polyreactivity (PSR sort gate)” value was “high polyreactivity”.

On to “QVQLVESGGGLVQAGGSHRLSCAASGSIFYYYTMGWYRQAPGKERELVASITGGGSTYYADSVKGRFTISRDHAKNTVYLQMNSLKPEDTAVYYCAAYSLRPRWRREYDYWGQGTQVTVSS”, for which the “polyreactivity (PSR sort gate)” value is given as “high polyreactivity”.

As to “QVQLVESGGGLVQAGGSHRLSCAASGSTFDYYAMGWYRQAPGKEREFVASINWNGARTYYADSVKGRFTNSRDNAKNTVYLQMNSLKPEDTAVYYCAKISRTYYRYDYWGQGTQVTVSS”, the “polyreactivity (PSR sort gate)” value is reported as “high polyreactivity”.

In the case of “QVQLVESGGGLVQAGGSHRLSCAASGSTFRYYPMGWYRQAPGKERELVARITSRAGRTYYADSVKGRFTISRDNAKNTVYLQMNSVKPEDTAVYYCNANRFRRYDWGQGTQVTVSS”, the “polyreactivity (PSR sort gate)” value is recorded as “high polyreactivity”.

On to “QVQLVESGGGLVQAGGSHRLSCAASGSTFSWNTMGWYRQAPGKERELVASITRSDGSTYADSEKGRFTISRDNAKNTVYLQMNSLKPEDTAVYYCNADPYLYLYLNYDYWGQGTQVTVSS”, for which the “polyreactivity (PSR sort gate)” value is “low polyreactivity”.

For “QVQLVESGGGLVQAGGSHRLSCAASGSTLSSYAMGWYRQAPGKERELVAAISSSSGSTYYADSVKGRFTISRDNAKNTVYLQMNSLKPEDTAVYYCAADFRYWGQGTQVTVSS”, the “polyreactivity (PSR sort gate)” value was “low polyreactivity”.

Turning to “QVQLVESGGGLVQAGGSHRLSCAASGTTIDYYAMGWYRQAPGKERELVAAISWSGGSTYYADSVKGRFTFSRDNAKNTVYLQMNSLKPEDTAVYYCAADSAFYTGSDYGWSDYDYWGQGTQVTVSS”, the “polyreactivity (PSR sort gate)” value is given as “low polyreactivity”.

Consider “QVQLVESGGGLVQAGGSHRLSCAASGYTFARNAMGCDRQAPGKDRELVAAINWSGTNTYYADSVKGRFTISRDSAMNTVYLQMNSLKPEDTAVYYCAKDLYFSGYEFDYWGQGTQVTVSS”, for which the “polyreactivity (PSR sort gate)” value is reported as “low polyreactivity”.

In the case of “QVQLVESGGGLVQAGGSHRLSCAASGYTFARYAMGWYRQAPGKERELVAAISRSGGGTYYADSVKGRFTISRDNAKNTVYLQMNSLKPEDTAVYYCATDRVQGLGRFDYWGQGTQVTVSS”, the “polyreactivity (PSR sort gate)” value is “high polyreactivity”.
